Reference: article PMC11189300

Columns and labels:
[1] = target: Mis12C^M3 (human), Q9H081
[2] = target: Mis12C^M4 (human), Q9H081
Chain of Mis12C^M4 (human), Q9H081 (Q9H081 whole entry, chain 1 of 4): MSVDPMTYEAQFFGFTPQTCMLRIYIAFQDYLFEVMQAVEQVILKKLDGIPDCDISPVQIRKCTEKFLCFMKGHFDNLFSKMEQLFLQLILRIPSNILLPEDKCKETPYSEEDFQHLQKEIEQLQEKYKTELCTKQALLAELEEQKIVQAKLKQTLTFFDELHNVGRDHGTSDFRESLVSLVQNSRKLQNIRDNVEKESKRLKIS
Chain of Mis12C^M4 (human), Q9H081 (Q6P1K2 whole entry, chain 2 of 4, further chain): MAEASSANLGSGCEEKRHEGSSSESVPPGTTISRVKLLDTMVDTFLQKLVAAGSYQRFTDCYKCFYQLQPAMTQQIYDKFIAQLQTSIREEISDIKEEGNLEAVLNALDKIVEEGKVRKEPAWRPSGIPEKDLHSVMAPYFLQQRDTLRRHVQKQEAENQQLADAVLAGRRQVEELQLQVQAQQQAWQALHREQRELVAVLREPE
Chain of Mis12C^M4 (human), Q9H081 (Q96IY1 whole entry, chain 3 of 4, further chain): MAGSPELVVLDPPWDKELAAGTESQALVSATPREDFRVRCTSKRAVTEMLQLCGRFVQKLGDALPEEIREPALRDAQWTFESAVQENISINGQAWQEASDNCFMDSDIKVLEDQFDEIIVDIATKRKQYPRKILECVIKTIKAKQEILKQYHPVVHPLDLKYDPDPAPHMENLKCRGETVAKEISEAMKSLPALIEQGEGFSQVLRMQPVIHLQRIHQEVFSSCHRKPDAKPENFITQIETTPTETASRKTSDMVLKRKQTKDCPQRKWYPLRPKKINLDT
Chain of Mis12C^M4 (human), Q9H081 (Q9H410 whole entry, chain 4 of 4, further chain): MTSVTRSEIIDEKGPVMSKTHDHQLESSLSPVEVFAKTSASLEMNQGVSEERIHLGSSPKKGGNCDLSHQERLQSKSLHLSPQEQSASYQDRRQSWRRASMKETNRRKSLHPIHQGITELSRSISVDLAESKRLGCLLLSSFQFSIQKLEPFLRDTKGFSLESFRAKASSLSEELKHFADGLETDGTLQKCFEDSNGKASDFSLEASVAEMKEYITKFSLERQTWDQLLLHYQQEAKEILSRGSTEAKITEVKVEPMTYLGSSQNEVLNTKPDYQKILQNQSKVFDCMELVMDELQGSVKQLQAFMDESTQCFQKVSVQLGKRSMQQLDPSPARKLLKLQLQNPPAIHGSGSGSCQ

Chain of Mis12C^M3 (human), Q9H081 (Q9H081 whole entry, chain 1 of 4): as the sequence (Q9H081 whole entry, chain 1 of 4) above
Chain of Mis12C^M3 (human), Q9H081 (Q6P1K2 whole entry, chain 2 of 4, further chain): as the sequence (Q6P1K2 whole entry, chain 2 of 4, further chain) above
Chain of Mis12C^M3 (human), Q9H081 (Q96IY1 whole entry, chain 3 of 4, further chain): as the sequence (Q96IY1 whole entry, chain 3 of 4, further chain) above
Chain of Mis12C^M3 (human), Q9H081 (Q9H410 whole entry, chain 4 of 4, further chain): as the sequence (Q9H410 whole entry, chain 4 of 4, further chain) above

- kinetochore levels of endogenous Ndc80C (NDC80^HEC1 immunofluorescence) in HeLa cells depleted of endogenous Mis12C and electroporated with the mutant Mis12C [1]: 50 % reduction
- kinetochore levels of endogenous Ndc80C (NDC80^HEC1 immunofluorescence) in HeLa cells depleted of endogenous Mis12C and electroporated with the mutant Mis12C [2]: 50 % reduction
B1: Ndc80 complex (Ndc80C): NDC80^HEC1, NUF2, SPC24, SPC25, O14777 1-642; Q9BZD4 1-464; Q8NBT2 1-197; Q9HBM1 1-224 (complex)
chain 1: MKRSSVSSGGAGRLSMQELRSQDVNKQGLYTPQTKEKPTFGKLSINKPTSERKVSLFGKRTSGHGSRNSQLGIFSSSEKIKDPRPLNDKAFIQQCIRQLCEFLTENGYAHNVSMKSLQAPSVKDFLKIFTFLYGFLCPSYELPDTKFEEEVPRIFKDLGYPFALSKSSMYTVGAPHTWPHIVAALVWLIDCIKIHTAMKESSPLFDDGQPWGEETEDGIMHNKLFLDYTIKCYESFMSGADSFDEMNAELQSKLKDLFNVDAFKLESLEAKNRALNEQIARLEQEREKEPNRLESLRKLKASLQGDVQKYQAYMSNLESHSAILDQKLNGLNEEIARVELECETIKQENTRLQNIIDNQKYSVADIERINHERNELQQTINKLTKDLEAEQQKLWNEELKYARGKEAIETQLAEYHKLARKLKLIPKGAENSKGYDFEIKFNPEAGANCLVKYRAQVYVPLKELLNETEEEINKALNKKMGLEDTLEQLNAMITESKRSVRTLKEEVQKLDDLYQQKIKEAEEEDEKCASELESLEKHKHLLESTVNQGLSEAMNELDAVQREYQLVVQTTTEERRKVGNNLQRLLEMVATHVGSVEKHLEEQIAKVDREYEECMSEDLSENIKEIRDKYEKKATLIKSSEE
chain 2: METLSFPRYNVAEIVIHIRNKILTGADGKNLTKNDLYPNPKPEVLHMIYMRALQIVYGIRLEHFYMMPVNSEVMYPHLMEGFLPFSNLVTHLDSFLPICRVNDFETADILCPKAKRTSRFLSGIINFIHFREACRETYMEFLWQYKSSADKMQQLNAAHQEALMKLERLDSVPVEEQEEFKQLSDGIQELQQSLNQDFHQKTIVLQEGNSQKKSNISEKTKRLNELKLSVVSLKEIQESLKTKIVDSPEKLKNYKEKMKDTVQKLKNARQEVVEKYEIYGDSVDCLPSCQLEVQLYQKKIQDLSDNREKLASILKESLNLEDQIESDESELKKLKTEENSFKRLMIVKKEKLATAQFKINKKHEDVKQYKRTVIEDCNKVQEKRGAVYERVTTINQEIQKIKLGIQQLKDAAEREKLKSQEIFLNLKTALEKYHDGIEKAAEDSYAKIDEKTAELKRKMFKMST
chain 3: MAAFRDIEEVSQGLLSLLGANRAEAQQRRLLGRHEQVVERLLETQDGAEKQLREILTMEKEVAQSLLNAKEQVHQGGVELQQLEAGLQEAGEEDTRLKASLLQLTRELEELKEIEADLERQEKEVDEDTTVTIPSAVYVAQLYHQVSKIEWDYECEPGMVKGIHHGPSVAQPIHLDSTQLSRKFISDYLWSLVDTEW
chain 4: MVEDELALFDKSINEFWNKFKSTDTSCQMAGLRDTYKDSIKAFAEKLSVKLKEEERMVEMFLEYQNQISRQNKLIQEKKDNLLKLIAEVKGKKQELEVLTANIQDLKEEYSRKKETISTANKANAERLKRLQKSADLYKDRLGLEIRKIYGEKLQFIFTNIDPKNPESPFMFSLHLNEARDYEVSDSAPHLEGLAEFQENVRKTNNFSAFLANVRKAFTATVYN
